Holding throughout (assay): fluorescence, 4-mU release
Format in all cases: biochemical, Moraxella sp. TA144
Holding throughout (conditions): 0.1 M phosphate pH 7, 30 °C, 5% DMSO

Series [1] concerns CCOCCOC(=O)c1ccc(C(=O)Oc2ccc3c(C)cc(=O)oc3c2)cc1. An excerpt: (§1) fluorescence, 4-mU release on MoPE (polyesterase)
Series [2] has as its system COC(=O)c1ccc(C(=O)Oc2ccc3c(C)cc(=O)oc3c2)cc1.
Text: as §1

For series [3], the system named is COC(=O)c1ccc(C(=O)OCCOC(=O)c2ccc(C(=O)Oc3ccc4c(C)cc(=O)oc4c3)cc2)cc1.
Text: as §1

On to “MoPE (polyesterase) (Moraxella sp. TA144)”, for which the Km stood at 15.6 ± 1.5 µM in series [1], 1.9 ± 0.1 µM in series [2] and 17.4 ± 2.1 µM in series [3]. Besides, the kcat in series [1] came to 0.00014 ± 1e-06 s⁻¹; in series [2] it was 3e-05 ± 1e-06 s⁻¹.

The term Km denotes the concentration of substrate that gives half-maximal velocity. As usually defined, the kcat is the maximal rate divided by the concentration of active sites.

The values are drawn from PMC11187625, “New Labeled PET Analogues Enable the Functional Screening and Characterization of PET-Degrading Enzymes” (ACS Sustainable Chemistry & Engineering, 2024).
